Measurements from patent US20250043302A1, “MUTATED HYDROXYPHENYLPYRUVATE DIOXYGENASE POLYPEPTIDE, AND CODING GENE AND USE THEREOF” (BEIJING DABEINONG BIOTECHNOLOGY CO., LTD., priority 2021, published 2025).

Experiments:
Format in all cases: in vivo
[1] = system: Arabidopsis thaliana T1 plants; test: Mesotrione tolerance of transgenic Arabidopsis thaliana T1 plants (spray, bleached leaf area grade, damage score); design: Scores: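 damage score 0-100 computed as Σ(N×S)/(T×M)×100 over grades 0-3 with higher meaning more damage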; conditions: Table 12; for Classification and statistics of the grade of pesticide damage Grade 0: number of plants at grade 0; for Classification and statistics of the grade of pesticide damage Grade 1: number of plants at grade 1; for Classification and statistics of the grade of pesticide damage Grade 2: number of plants at grade 2; for Classification and statistics of the grade of pesticide damage Grade 3: number of plants at grade 3; for Scores: pesticide damage score
Procedure, shortened: (§1)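 T1 transformants selected by glufosinate; 18-day-old plants, with empty-vector and wild-type controls, sprayed with topramezone (25–200 g ai/ha), isoxaflutole (35–280 g ai/ha) or mesotrione (52.5–420 g ai/ha), water as 0×. Bleached leaf area fraction scored at 7 DAT as grades 0–3.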

[2] = system: Arabidopsis thaliana T1 plants; test: Topramezone tolerance of transgenic Arabidopsis thaliana T1 plants (spray, bleached leaf area grade, damage score); conditions: Table 10; for Classification and statistics of the grade of pesticide damage Grade 0: number of plants at grade 0; for Classification and statistics of the grade of pesticide damage Grade 1: number of plants at grade 1; for Classification and statistics of the grade of pesticide damage Grade 2: number of plants at grade 2; for Classification and statistics of the grade of pesticide damage Grade 3: number of plants at grade 3; for Scores: pesticide damage score
Procedure, shortened: as §1

[3] = system: Arabidopsis thaliana T1 plants; test: Isoxaflutole tolerance of transgenic Arabidopsis thaliana T1 plants (spray, bleached leaf area grade, damage score); conditions: Table 11; for Classification and statistics of the grade of pesticide damage Grade 0: number of plants at grade 0; for Classification and statistics of the grade of pesticide damage Grade 1: number of plants at grade 1; for Classification and statistics of the grade of pesticide damage Grade 2: number of plants at grade 2; for Classification and statistics of the grade of pesticide damage Grade 3: number of plants at grade 3; for Scores: pesticide damage score;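 as to Scores: Weighted damage index from 0 to 100 where higher means more damage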
Procedure, shortened: as §1

B1: HPPDm-8-02: nucleotide sequence encoding AsHPPDm-A111T-K351N-F372A-F383W with mutated C-terminal; vector DBN11789 (nucleic acid)
DNA: ATGCCACCTACTCCAGCTACAGCTACTGGTGCTGCTGCTGCTGCCGTTACTCCTGAGCACGCTGCCAGGTCATTCCCCAGGGTGGTTCGCGTGAACCCCAGATCTGATAGGTTCCCAGTTCTGAGCTTCCACCATGTTGAGCTGTGGTGCGCTGATGCTGCTTCTGCTGCTGGCAGGTTCTCTTTCGCTCTTGGTGCTCCACTCGCTGCTAGATCTGATCTGTCTACAGGAAATAGCGCTCATGCCTCACTCCTGCTTCGCTCAGGTGCTTTGGCCTTCCTCTTCACCGCTCCATATGCTCCCCCACCTCAGGAGGCTGCTACTGCTGCTACTACAGCCTCCATTCCAAGCTTCTCAGCTGATGCCGCTAGAACCTTCGCTGCTGCTCATGGACTTGCCGTGAGGTCTGTTGGTGTTCGCGTGGCTGATGCTGCTGAGGCTTTCAGAGTTTCCGTTGCCGGCGGAGCTAGGCCAGCTTTCGCTCCTGCTGATTTGGGACATGGTTTCGGCCTGGCTGAGGTTGAGCTTTACGGTGACGTGGTTCTCCGCTTCGTGTCTTACCCAGATGAGACTGACCTGCCTTTCCTTCCCGGCTTCGAGAGAGTTTCCTCTCCTGGTGCCGTGGATTACGGCCTGACAAGGTTCGACCACGTGGTTGGAAACGTTCCCGAGATGGCTCCAGTGATCGATTACATGAAGGGCTTCCTTGGATTCCATGAGTTCGCCGAGTTCACTGCTGAGGACGTGGGAACCACTGAGTCCGGTTTGAACTCTGTGGTTCTCGCCAACAATTCTGAGGCTGTTTTGCTCCCTCTGAATGAGCCTGTGCATGGAACCAAGAGGAGAAGCCAGATTCAAACTTACCTGGAGTACCACGGTGGCCCTGGAGTTCAGCATATCGCCCTTGCTTCTAATGATGTGTTGCGCACACTCAGAGAGATGCGCGCCAGAACCCCCATGGGAGGTTTCGAGTTCATGGCCCCACCACAGGCTAAGTACTACGAGGGCGTTAGAAGGATTGCTGGAGACGTGTTGAGCGAGGAGCAGATCAATGAGTGCCAAGAGCTGGGTGTTCTTGTGGATAGGGATGACCAGGGCGTTCTGCTTCAAATTGCCACTAAGCCAGTGGGCGACCGCCCTACATTCTGGCTTGAGATGATTCAAAGAATCGGCTGCATGGAGAAGGATGAGGTTGGACAGGAGTACCAAAAGGGCGGATGCGGTGGCTTCGGAAAGGGTAACTTCAGCGAGTTGTTCAAGTCAATCGAGGAGTATGAGAAGACCTTGGAGGCCAAGCAGCTCGTGGGTTGA
modifications: mutated C-terminus; HPPDm-8-02 Nucleotide Sequence
notes: vector DBN11789
For B1, the Resistance evaluation ([1]; mesotrione 210 g ai/ha (2×)) was “Highly resistant”, the “Classification and statistics of the grade of pesticide damage Grade 0” value ([1]; mesotrione 210 g ai/ha (2×)) was 16 and the “Classification and statistics of the grade of pesticide damage Grade 1” value ([1]; mesotrione 210 g ai/ha (2×)) was 0. For the same molecule, the “Classification and statistics of the grade of pesticide damage Grade 2” value ([1]; mesotrione 210 g ai/ha (2×)) was 0, the “Classification and statistics of the grade of pesticide damage Grade 3” value ([1]; mesotrione 210 g ai/ha (2×)) was 0 and the Scores ([1]; mesotrione 210 g ai/ha (2×)) was 0. For the same molecule, the Resistance evaluation ([1]; mesotrione 420 g ai/ha (4×)) was “Highly resistant”, the “Classification and statistics of the grade of pesticide damage Grade 0” value ([1]; mesotrione 420 g ai/ha (4×)) was 16 and the “Classification and statistics of the grade of pesticide damage Grade 1” value ([1]; mesotrione 420 g ai/ha (4×)) was 0. The “Classification and statistics of the grade of pesticide damage Grade 2” value ([1]; mesotrione 420 g ai/ha (4×)) was 0, the “Classification and statistics of the grade of pesticide damage Grade 3” value ([1]; mesotrione 420 g ai/ha (4×)) was 0 and the Scores ([1]; mesotrione 420 g ai/ha (4×)) was 0. For the same molecule, the Resistance evaluation ([2]; topramezone 100 g ai/ha (4×)) was “Highly resistant”, the “Classification and statistics of the grade of pesticide damage Grade 0” value ([2]; topramezone 100 g ai/ha (4×)) was 16 and the “Classification and statistics of the grade of pesticide damage Grade 1” value ([2]; topramezone 100 g ai/ha (4×)) was 0. For the same molecule, the “Classification and statistics of the grade of pesticide damage Grade 2” value ([2]; topramezone 100 g ai/ha (4×)) was 0, the “Classification and statistics of the grade of pesticide damage Grade 3” value ([2]; topramezone 100 g ai/ha (4×)) was 0 and the Scores ([2]; topramezone 100 g ai/ha (4×)) was 0. For the same molecule, the Resistance evaluation ([2]; topramezone 200 g ai/ha (8×)) was “Highly resistant”, the “Classification and statistics of the grade of pesticide damage Grade 0” value ([2]; topramezone 200 g ai/ha (8×)) was 16 and the “Classification and statistics of the grade of pesticide damage Grade 1” value ([2]; topramezone 200 g ai/ha (8×)) was 0. For the same molecule, the “Classification and statistics of the grade of pesticide damage Grade 2” value ([2]; topramezone 200 g ai/ha (8×)) was 0, the “Classification and statistics of the grade of pesticide damage Grade 3” value ([2]; topramezone 200 g ai/ha (8×)) was 0 and the Scores ([2]; topramezone 200 g ai/ha (8×)) was 0. For the same molecule, the Resistance evaluation ([3]; isoxaflutole 140 g ai/ha (2×)) was “Highly resistant”, the “Classification and statistics of the grade of pesticide damage Grade 0” value ([3]; isoxaflutole 140 g ai/ha (2×)) was 16 and the “Classification and statistics of the grade of pesticide damage Grade 1” value ([3]; isoxaflutole 140 g ai/ha (2×)) was 0. For the same molecule, the “Classification and statistics of the grade of pesticide damage Grade 2” value ([3]; isoxaflutole 140 g ai/ha (2×)) was 0, the “Classification and statistics of the grade of pesticide damage Grade 3” value ([3]; isoxaflutole 140 g ai/ha (2×)) was 0 and the Scores ([3]; isoxaflutole 140 g ai/ha (2×)) was 0. For the same molecule, the Resistance evaluation ([3]; isoxaflutole 280 g ai/ha (4×)) was “Highly resistant”, the “Classification and statistics of the grade of pesticide damage Grade 0” value ([3]; isoxaflutole 280 g ai/ha (4×)) was 16 and the “Classification and statistics of the grade of pesticide damage Grade 1” value ([3]; isoxaflutole 280 g ai/ha (4×)) was 0. The “Classification and statistics of the grade of pesticide damage Grade 2” value ([3]; isoxaflutole 280 g ai/ha (4×)) was 0, the “Classification and statistics of the grade of pesticide damage Grade 3” value ([3]; isoxaflutole 280 g ai/ha (4×)) was 0 and the Scores ([3]; isoxaflutole 280 g ai/ha (4×)) was 0.
